Source: patent publication US20260241035A1, “FUNCTIONAL NUCLEIC ACID MOLECULE AND METHOD” (THE UNIVERSITY COURT OF THE UNIVERSITY OF EDINBURGH, priority 2022, published 2026)

B1: CSE208: clustered SOX dimer motif enhancer, SEQ ID NO: 38 (nucleic acid)
DNA: AGATAAAGCCAGAAATAAAAGGGAAAGAAACAGTTATATGATTTTGGTGGGAATTTGCAGAAATACAGGCTGAAGCTGAAGTCTTCCATCAGGTGAGGTTTTTTCCATTGATCTCATCTCTCGGGCTCAGCTCTTTTATCTCCAGCGCATTTTGGATGTGGCTTCTCTTTCCACCTGCTGGGCCTTTAGATAGAGTACTTCCTTTTGTTTCAAGGTAGCATTTAACTGAGTCTGGAAAAACCATCATTAAGGGAAAATAAAGCTGAAAGATGAATTGAAAACTATGTAAAAGGGCCCTTTCAGGCTGCCGGAGAGATTGCCTTTCCAGCCTAATGAGCCTGTGCTGCCTCTGATTCAGATGGTGCAAGGACAGGAGAAAAGAATGGAGTTTTGTGCACTGCGATTTTCCAAAGCACATAATGCTTAGTCATTTGGGGTGTTAGGAAAGAGAGAAAGTCGGAGCGGAGTGTGTGGTGAAGTGAGAGAAAGAAAGAAGGCTGAATTTTCGTTAAGCTGCTCAAATGCCTGCTTTAACAAAAGTCTGCCAGGGCTAGAGGTGATTAGCCATCAGTGCTGCTGCTGTTTTTGCTGTCG
B2: ID0403-2: enhancer fragment, SEQ ID NO: 33 (nucleic acid)
DNA: ATGTTAAACAGTGAAATCATCAGCAAAAAGCACAAAACTGCAGAAAACATGGCACTAAATAGAACACAAAAAGGACACTTGTTTACAGTATGAGAGCAGAAACAAGGAAACAGTGTTTCCTTGTTCAGCCACAGCTGGGACCTTGTGTGT
B3: ID2816: enhancer fragment, SEQ ID NO: 31 (nucleic acid)
DNA: TTCCTGCATCTGGCCCTCTTTGAGAGCCCCTTGTGTGCCAATGACAAACCCTTCTTTATTTAAGCTCCTCTGAAGTGCCTTCCTGGTCTTGGCAGCTGGACAGGGCCCTGAATAAGACAGCGAGCCTCAATGGCAGGCTACCCCAGGGCTGGGTGACGTA
B4: ID3499: enhancer fragment, SEQ ID NO: 36 (nucleic acid)
DNA: AAGAATGAACTGGGCCCAGCTGGGCATTTGCATCAAAGTGCCTCACCAGAGTTCCCAGCTGCTCTGGCAGAGTGCCCAGGCTTGCCCCAGAGCCCAAACAGAATGCTCTTTGAGATGCCTCTGGTTTTCA
modifications: listed as DNA, chemistry not given here
B5: ID1667: enhancer fragment, SEQ ID NO: 30 (nucleic acid)
DNA: ACCCTTTGCAGAGAGGAAAGAGAAAGGAGGTCTCCTGTTGGGGAGATCTGCTTTAGAGGTTAGGAAGAATGGTGGAGTTGTAAGACATTGGAATCACTGTCTAGGAAGGACAGTGGCCTTTTATCCAGGGCTATTTAAAAACAGACAGAGCTTCATCTAT
B6: CSE194: clustered SOX dimer motif enhancer, SEQ ID NO: 37 (nucleic acid)
DNA: ATCTCATATATGTGTATATGTATTTATGATTTACATATATACAGACGTATCACACACTCCGAATAGAATACAGATTTCCTTCAATGACAGCAACAACTCAATGACCCGCCCACTAGCATGGCTAAAATACTAAACCACTAGATAGCTTTATGTGAACTTGAGCTTGATTGTTTCTTAGCTCTGCTTCAGAACCTCATGATCATGTGCATGCAATTTCTACAGAAGCGGAAACGTAGATGCTGTGGGTCAGTGAGCATTCCTTTCCAGGGTGCTTCTGAGATGAAGCCCCACGATTAACACAGGGCCCTTAATGATGGGCGGGGGACTAAGCATTCCAAGATTGGCCTGGATTCCTGCCAGAAGGGAGAGAAAGGGGTCTTTGTATGTGGACATCTGAAGGGCGGGCATAAACATGTTAGTTGATACTTAACACCCAAAACCAGTGCCAAAACCGTTAGCTCCCCTCAATAGCCTACTCTGGTTTCAACTGTCCGCGACAATGGAGCAGCCACCTCAATATACAAAACTTGCTCTTTAAACATCCTCAGAGGAATTCCCAAAATAGCAGCTGTTAGAAGCAAACAGACTCTAATTCATTGACATATGCAGACCTTTTAATGTTTTTCTGGTGACGTTTACATTTTTTTTTGTACCTACGCCATCTATGCATTTTTAATAATTACCTTGTAGATTACGTATGCAATCCCTCCAGGCACTTGAAGAAGGAGCCCCGGGATTCATCATCAGATGAAATTGTTAGTTTTTACGGCAAGAGGCCCAGCTAATTTATGCGGGGAATTTTTCAGACGTTTTTCCTCTGGGCTCCCTTCCCTGCTGTCCTCGCGCCTTTCTTCCTCAGTACATTAAGAGATTCTGATGTGCCTGCAGCA
B7: ID4431: enhancer fragment, SEQ ID NO: 35 (nucleic acid)
DNA: AAATGGTGATTATCATCATTTGTTCAGGGACATTAGCATGAAGGCCGAATGTTCTGGCACAAAGACACGTCTGTGGGACAGGCAC
modifications: listed as DNA, chemistry not given here
B8: ID0403-1: enhancer fragment, SEQ ID NO: 32 (nucleic acid)
DNA: TGCCTCTCTTCCATTGGCATTGGAGTGGCTATAGGCCTTTGGAGGACCTGGCAAAGGGGAAGTTGATTTAGGGGTTCATTGAATTGAGGGGAAGTATGTAAGTGGTTTGCAGTCACTTCCTTGTGTGGTACTCTTGTATAGTAATGATTTCCTGGAATA
B9: ID4035: enhancer fragment, SEQ ID NO: 29 (nucleic acid)
DNA: CCCAGACTGCCATCTCCACGGCCCCCACACCAGCACACAGATGCCTCATTCACGTGGTGCTCCCAGGGCCTGGCACCAGTTCTGAGGCTTAAAATAGGCACACAACGGGCCTTTGTCGGATAGAGGAAGGAAGGAAGGAGCGTTTCAGACAAAGGAGACA
B10: ID2082: enhancer fragment, SEQ ID NO: 28 (nucleic acid)
DNA: ACAGAAGCCGTTGCTGCAGTAACCACTGCCGCAAGAGCAACTTTGGCAGCAGGCAGGTGCCAGGCAGCAAGCTGAGAGAACACTGACAGATTCAAAGTGTCTTCAGATACAAGGCTTTGTTTGTGCACAGTGAACAAAGGGCATATTGGGAAGGCCTCC
B11: CSE222: clustered SOX dimer motif enhancer, SEQ ID NO: 39 (nucleic acid)
DNA: CTCTTTGGGTCTAGGTATCATTTTGGGATCACATCATGATAACTCTATGTGTGTGTGCTGGGAGGGCAAAGTTGCAAAGCAATTACTCAGCAATGCTGAAGAAAGAAGCAATTACTGGAACACATTTTAGCCCCGCTTGTCAGAGTGACTTTCACTGGGGCACAAGGGAAGCATTCACTTAGGCAGTATCCCTTTCAGAGGCTTAATTTAGTTTTTTCTTCCCTTTAATTGTGTGATTCCAGTATTTTAGCTACAATCCCTAGGCTGTAGGAACCTTTAAACACTTCTTTTTATAAAAGAAATGCATGGGCTTTTGAAGAATAAACAGGGGGCTGCATAATTTATAGGAAAATGGCACCATGGACTTTTCCTTCACAAAGAACATTGGGGTTACATTGGAACAAGCCAAATATGTTTTTAATGAATAGTCAGTAATCAGCAGCAGCTACAGTAAGTGCTTGAAATTTTTCTTTTATGTGCTATGAGTCCACAAACTAAGCATCTGATTCTGATTGCAGCCATGA
B12: ID0109: enhancer fragment, SEQ ID NO: 6 (nucleic acid)
DNA: GAAATTGGATCCTGAGGAGAATGTCACCACCTCTTTGACAATAACTAGCTTTCAGAGCTGAACACAGTGAATCTGGATACTGTGTATATGTTTAAATGAGTTAGGAAATGACATCACATTATTTATTTCTTCTTTTGTGACTTAGTAAATTGACTTGGCC

System: GSC7 cells
Experiment: Nano-Glo Dual-Luciferase Reporter (Nanoglo DLR) assay of enhancer activity, fold change to mCMV
Assay type: cell-based, human
Details: expression fold change of the individual enhancer compared to mCMV
Source text: We chose an arrayed library format, with 160 bp enhancer fragments individually cloned into separate plasmids and arrayed in 96 well plates. These 160 bp were synthesized as a single pool of oligos, then randomly cloned into the plasmid and isolated. 20 bp×2 were needed for PCR amplification of the pool and so a library of 200 bp fragments was synthesized (Twist Biosciences). To meet our oligo synthesis strategy, ChIP-seq peaks expressed by GSCs were merged into a single oligo. This oligonucleotide pool was PCR-amplified (using limited cycles to reduce bias and ‘jackpot’ products meaning products which are easier to amplify will overtake the oligonucleotide pool) and cloned into the expression vector by an efficient Golden Gate reaction. 4579 individual plasmids were then randomly picked, isolated and plated as an arrayed plasmid DNA library on 96 well plates (×48). The bacterial colony picking and production of plasmid minipreps were supported by the Edinburgh Genome Foundry (S. Rosser). This library was then screened using the optimised Nanoglo DLR assay (Nano-Glo Dual-Luciferase Reporter Assay, Promega) in 384 well format. Each plate was transiently transfected together with PGK-FFLuc in a 1:10 ratio into GSC7 cells. 2 days later a Nanoglo DLR assay was performed and assayed on a plate reader.
Cells were seeded in 384 well plates using a multidrop and transfected the following day using the CyBio Felix. Two days later the experiment was terminated with a Nanoglo DLR assay and all hits with a fold change to mCMV greater than 10 were Sanger sequenced and mapped back to the genome.
Cells were seeded at the required density. The following day the transfection was carried out. For this the Plus reagent and Lipofectamine LTX (Life Technologies, 15338030) were each diluted in half the volume of Opti-MEM I Reduced-Serum Medium (further referred to as Optimem) (Life Technologies, 31985062). Following this step, the Plus reagent/Optimem premix was added to all DNA samples followed by the Lipofectamine LTX/Optimem premix. The transfection mix was incubated for 5 min at room temperature and then carefully dropped on the cells. Generally, no media change was carried out. Cells were analysed two days following transfection.
This assay consists of two steps. The transfection was carried out using a normalisation plasmid PGK-Firefly-Luciferase (Promega, E5011) that was transfected in a 1/10 ratio with the plasmid of interest. First, the Firefly Luciferase activity is measured which allows to normalise to transfection efficiency. In a second step, the activity of Nanoluc is determined which is the readout of the plasmid of interest. Cells were washed 3× with PBS and 20 μl was left in the 96 well plate after the final wash (25 μl in 384 well). Oneglo buffer was added and the plate was shaken for 5 min at 480 rpm to allow cell lysis. 20 μl cell lysate in 96 well format or 25 μl cell lysate in 384 well format was then transferred into the corresponding opaque white plate and luminescence was measured at for 0.1 s per well using the Ensight Multimode Plate Reader. For the following Nanoluc reaction in a 96 well format 2 μl cell lysate was transferred into an opaque white plate containing 40 μl PBS, and 20 μl Stopglo buffer, supplemented with substrate, was added to each well. In a 384 well format 20 μl Stopglo buffer containing substrate were added on top of the undiluted cell lysate. The plate was shaken again for 5 min at 480 rpm to quench the firefly luciferase reaction and ensure good mixing. Nanoluc activity was measured for 0.1 s per well, again using Ensight Multimode Plate Reader.
Data obtained by the Nanoluc reaction was normalised to Firefly reaction to account for well-to-well variability of transfection efficiency. Normalised data were used to calculate the fold change to the empty vector control mCMV.

In order of falling “Fold change (Median)” value:
1. B11  145.9 fold
2. B12  116.4 fold
3. B1  45.5 fold
4. B10  26.4 fold
5. B9  26.2 fold
6. B5  25.2 fold
7. B3  25.1 fold
8. B2  24.9 fold
9. B8  24.9 fold
10. B7  21.2 fold
11. B4  20.7 fold
12. B6  14.54 fold
